Experimental data reported in PMC8391104, “Molecular mechanism of Mad1 kinetochore targeting by phosphorylated Bub1” (EMBO Reports, 2021).
Values belong to the binder of their own block, whether it stands above or below them. Where no end group is shown, it is not given here. [ ]: non-standard residue; d: D form. pT = C[C@@H](OP(=O)(O)O)[C@H](N)C(=O)O; pS = N[C@@H](COP(=O)(O)O)C(=O)O

B3: Mad1 C-terminal domain (Mad1^CTD) homodimer, residues 597-718 (domain or fragment, human, UniProt Q9Y6D9 597-718, looked up)
chain: SSKEVAELKKQVESAELKNQRLKEVFQTKIQEFRKACYTLTGYQIDITTENQYRLTSLYAEHPGDCLIFKATSPSGSKMQLLETEFSHTVGELIEVHLRRQDSIPAFLSSLTLELFSRQTVA
notes: the C-terminal residue is Ala718; For NMR the same construct was made 15N-labelled or 2H,13C,15N-labelled in M9 minimal medium; also called wild-type Mad1^CTD; WT Mad1^CTD; source: E. coli Rosetta 2 (DE3), purified (Strep-Tactin, TEV cleavage, Resource Q, Superdex 75); not shown: double Strep, N-terminal, cleaved; His6, N-terminal, cleaved

Legend:
[1] = molecular target: B3; experiment: AUC; sedimentation equilibrium; 20 µM Mad1^CTD with 20 or 40 µM Bub1^CD1 peptide; 20 mM HEPES pH 7.5, 100 mM NaCl, 1 mM TCEP; 20°C; two-species model; settings: both partners purified
[2] = molecular target: T1, Mad1^CTD R650A (human, UniProt Q9Y6D9 597-718, R650A); experiment: ITC; Bub1^CD1 peptide (0.3-1.5 mM) titrated into Mad1 (30-100 µM) in the cell; 20°C; 20 mM HEPES pH 7.5, 100 mM NaCl, 1 mM TCEP; single-site model; stoichiometry counted on dimeric Mad1^CTD; settings: both partners purified
T1 construct: also called alanine substitution of Arg650; source: E. coli Rosetta 2 (DE3), purified (Strep-Tactin, TEV cleavage, Resource Q, Superdex 75); not shown: double Strep, N-terminal, cleaved; His6, N-terminal, cleaved
T1 sequence (looked up): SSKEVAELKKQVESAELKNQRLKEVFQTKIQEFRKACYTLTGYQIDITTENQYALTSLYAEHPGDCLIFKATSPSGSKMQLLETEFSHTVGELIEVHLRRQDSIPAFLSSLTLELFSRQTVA

[3] = molecular target: T2, Mad1^CTD I643A (human, UniProt Q9Y6D9 597-718, I643A); experiment: as above; settings: both partners purified
T2 construct: also called alanine substitution of Ile643; source: E. coli Rosetta 2 (DE3), purified (Strep-Tactin, TEV cleavage, Resource Q, Superdex 75); not shown: double Strep, N-terminal, cleaved; His6, N-terminal, cleaved
T2 sequence (looked up): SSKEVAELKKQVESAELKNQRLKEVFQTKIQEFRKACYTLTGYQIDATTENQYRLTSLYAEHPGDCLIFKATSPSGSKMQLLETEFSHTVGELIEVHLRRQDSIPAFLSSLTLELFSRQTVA

[4] = molecular target: T3, Mad1^CTD K619A (human, UniProt Q9Y6D9 597-718, Substituting Ala for Lys619); experiment: as above; settings: both partners purified
T3 construct: also called Ala for Lys619; source: E. coli Rosetta 2 (DE3), purified (Strep-Tactin, TEV cleavage, Resource Q, Superdex 75); not shown: double Strep, N-terminal, cleaved; His6, N-terminal, cleaved
T3 sequence (looked up): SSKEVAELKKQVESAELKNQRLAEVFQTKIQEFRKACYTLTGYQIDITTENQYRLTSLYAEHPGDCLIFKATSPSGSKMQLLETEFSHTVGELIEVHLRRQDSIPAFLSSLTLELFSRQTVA

[5] = molecular target: T4, Mad1^CTD Q627A (human, UniProt Q9Y6D9 597-718, Q627A); experiment: as above; settings: both partners purified
T4 construct: also called alanine substitution of Gln627; source: E. coli Rosetta 2 (DE3), purified (Strep-Tactin, TEV cleavage, Resource Q, Superdex 75); not shown: double Strep, N-terminal, cleaved; His6, N-terminal, cleaved
T4 sequence (looked up): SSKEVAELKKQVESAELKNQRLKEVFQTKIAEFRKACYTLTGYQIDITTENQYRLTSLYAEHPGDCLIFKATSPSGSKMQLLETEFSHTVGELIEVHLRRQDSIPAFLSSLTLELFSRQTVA

[6] = molecular target: T5, Mad1^CTD QRI triple mutant (Q627A, R650A, I643A) (human, UniProt Q9Y6D9 597-718, Q627A | I643A | R650A); experiment: as above; settings: both partners purified
T5 construct: also called triple alanine mutant; source: E. coli Rosetta 2 (DE3), purified (Strep-Tactin, TEV cleavage, Resource Q, Superdex 75); not shown: double Strep, N-terminal, cleaved; His6, N-terminal, cleaved
T5 sequence (looked up): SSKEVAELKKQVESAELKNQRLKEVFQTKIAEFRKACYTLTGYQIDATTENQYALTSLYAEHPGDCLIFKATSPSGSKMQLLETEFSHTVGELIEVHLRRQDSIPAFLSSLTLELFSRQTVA

[7] = molecular target: T6, Mad1^CTD R630A (human, UniProt Q9Y6D9 597-718, R630A); experiment: as above; settings: both partners purified
T6 construct: also called Mad1 R630A mutant; source: E. coli Rosetta 2 (DE3), purified (Strep-Tactin, TEV cleavage, Resource Q, Superdex 75); not shown: double Strep, N-terminal, cleaved; His6, N-terminal, cleaved
T6 sequence (looked up): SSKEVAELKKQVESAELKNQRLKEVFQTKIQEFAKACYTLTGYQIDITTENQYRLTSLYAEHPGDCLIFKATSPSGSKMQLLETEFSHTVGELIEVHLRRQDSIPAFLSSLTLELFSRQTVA

[8] = molecular target: T7, Mad1^CTD R617A (human, UniProt Q9Y6D9 597-718, R617A); experiment: as above; settings: both partners purified
T7 construct: also called R617A mutant of Mad1; source: E. coli Rosetta 2 (DE3), purified (Strep-Tactin, TEV cleavage, Resource Q, Superdex 75); not shown: double Strep, N-terminal, cleaved; His6, N-terminal, cleaved
T7 sequence (looked up): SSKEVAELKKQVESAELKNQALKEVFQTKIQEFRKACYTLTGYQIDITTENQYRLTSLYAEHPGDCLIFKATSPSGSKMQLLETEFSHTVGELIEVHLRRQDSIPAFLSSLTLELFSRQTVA

[9] = molecular target: T8, Mad1^CTD QRRI quadruple mutant (Q627A, R630A, I643A, R650A) (human, UniProt Q9Y6D9 597-718, Q627A | R630A | I643A | R650A); experiment: as above; settings: both partners purified
T8 construct: source: E. coli Rosetta 2 (DE3), purified (Strep-Tactin, TEV cleavage, Resource Q, Superdex 75); not shown: double Strep, N-terminal, cleaved; His6, N-terminal, cleaved
T8 sequence (looked up): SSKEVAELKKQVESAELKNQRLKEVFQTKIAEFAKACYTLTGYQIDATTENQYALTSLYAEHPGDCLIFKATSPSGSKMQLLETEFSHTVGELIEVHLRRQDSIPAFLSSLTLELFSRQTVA

[10] = molecular target: the molecule itself; experiment: AUC; sedimentation equilibrium; 20 µM Mad1^CTD with 20 or 40 µM Bub1^CD1 peptide; 20 mM HEPES pH 7.5, 100 mM NaCl, 1 mM TCEP; 20°C; two-species model
[11] = molecular target: the molecule itself; experiment: SEC-MALS; 100 µl of purified protein at 0.5-2.0 mg/ml on Superdex 200 Increase 10/300 GL, 0.5 ml/min

stoichiometry N [1]: 1 peptide per Mad1^CTD dimer
B1: phosphorylated Bub1^CD1 peptide with an additional N-terminal tryptophan (peptide)
peptide: WKVQP[pS]P[pT]VHTKEALGFIMNMFQAPTS
notes: additional N-terminal tryptophan, added to confirm the peptide concentration; Bub1 conserved domain 1 (CD1), human, stated as residues 455-479; also called Bub1^CD1 peptide with an N-terminal tryptophan residue; source: synthetic peptide (Designer Bioscience UK, 95% purity)

binding result [2]: binds
binding result [3]: binds
Kd [4]: 10 µM
binding result [5]: binds
Kd [6]: 14.5 µM
Kd [7]: 10 µM
Kd [8]: 3000 µM
Kd [9]: 25 µM
B2: doubly phosphorylated Bub1^CD1 peptide (pSer459-pThr461) (peptide)
peptide: KVQP[pS]P[pT]VHTKEALGFIMNMFQAPTS
notes: Bub1 conserved domain 1 (CD1), human, stated as residues 455-479; also called pSer459-pThr461 peptide; source: synthetic peptide (Designer Bioscience UK, 95% purity)

Binder: B3
stoichiometry N [10]: 2

B4: Mad1^CTD L618A (domain or fragment, human, UniProt Q9Y6D9 597-718, looked up)
chain: SSKEVAELKKQVESAELKNQRAKEVFQTKIQEFRKACYTLTGYQIDITTENQYRLTSLYAEHPGDCLIFKATSPSGSKMQLLETEFSHTVGELIEVHLRRQDSIPAFLSSLTLELFSRQTVA
notes: Poorly expressed, aggregated easily, eluted broadly; the authors suspect mis-folding of the dimer; also called L618A mutant; source: E. coli Rosetta 2 (DE3), purified (Strep-Tactin, TEV cleavage, Resource Q, Superdex 75); not shown: double Strep, N-terminal, cleaved; His6, N-terminal, cleaved
stoichiometry N [11]: 2

B5: Mad1^CTD F629A (domain or fragment, human, UniProt Q9Y6D9 597-718, looked up)
chain: SSKEVAELKKQVESAELKNQRLKEVFQTKIQEARKACYTLTGYQIDITTENQYRLTSLYAEHPGDCLIFKATSPSGSKMQLLETEFSHTVGELIEVHLRRQDSIPAFLSSLTLELFSRQTVA
notes: Poorly expressed, prone to aggregate; the authors suspect a disrupted Mad1 conformation; also called F629A mutant; source: E. coli Rosetta 2 (DE3), purified (Strep-Tactin, TEV cleavage, Resource Q, Superdex 75); not shown: double Strep, N-terminal, cleaved; His6, N-terminal, cleaved
stoichiometry N [11]: 2
